Data: US20230321241A1, “CANCER PEPTIDE VACCINE AND METHOD OF PREPARING THE SAME” (BrightPath Biotherapeutics Co., Ltd., priority 2020, published 2023)
Where a SMILES comes first, the peptide text is derived from it. Where no end group is shown, it is not given here.

Experiments:
Assay type in all cases: physicochemical
[1] = Preparation Example 2: stability of lyophilized peptide cocktail preparation; conditions: T = 1 (1 month at 25° C., humidity 60%)
Procedure: To produce a lyophilized peptide cocktail preparation and confirm the stability of the preparation, 500 mL of a peptide cocktail preparation was prepared in the same manner as in Example 1, and then the preparation was aseptically filled to a glass vial at 1 mL per vial and lyophilized to provide a lyophilized peptide cocktail preparation. Then, immediately after the preparation (T=0) or after storage at room temperature (25° C., humidity 60%) for 1 month from the preparation (T=1), 1 mL of purified water was added to the lyophilized preparation to dissolve the peptides. Appearance, solubility, peptide stability, and pH were evaluated.

[2] = Test Example 3: peptide stability in solution (HPLC); conditions: for % difference vs T = 0 / Conc.: buffers as Table 3; for T0 Conc.: time of preparation, buffers: SEQ1 pH 3.5 50 mM Gly-HCl + 200 mM trehalose, SEQ2 pH 4.0, SEQ3 pH 7.0, SEQ4 pH 6.0 in 10 mM citrate + 270 mM trehalose
Procedure: Based on the results of Test Example 1 and Test Example 2, the stability of the peptides was examined. First, peptide drug substances (purity 95 w/w % or more, PPL) were dissolved in the buffers shown in Table 3, respectively, to prepare peptide solutions of the peptides of SEQ ID NOs: 1 to 4 at the final concentration of 10 mg/mL. […] In the evaluation, samples were collected at the time of preparation of the peptide solution, after 24 hours, and after 48 hours, and stored at −20° C. The peptide concentration was measured by HPLC after all the samples were collected, and compared with the peptide concentration at the time of preparation (T=0).

[3] = Example 1: peptide cocktail preparation standing at room temperature for 6 hours; conditions: for HPLC analysis: peptide concentration: in peptide cocktail preparation of Example 1 (with GM-CSF); for HPLC analysis: % vs T0: in peptide cocktail preparation of Example 1, T = 6 hours
Procedure: Using the lyophilized peptide preparations produced in Preparation Example 1, a peptide cocktail preparation to be administered was prepared as follows. First, 1 mL of purified water was added to each lyophilized peptide preparation, and the lyophilized product in the vial was dissolved to prepare a peptide solution. All the peptide solutions were collected from the respective vials and transferred to a different vial to provide a peptide cocktail preparation. Also, a GM-CSF lyophilized preparation (product name: Lukine ([…]), Sanofi) was dissolved in 1 mL of purified water and 0.6 mL of the solution thus obtained was added as an adjuvant to 1.4 mL of the peptide cocktail preparation to provide a peptide cocktail preparation to be administered. Then, the peptide cocktail preparation thus obtained was allowed to stand at room temperature for 6 hours, and evaluated for changes in peptide concentration, pH (25° C.), and osmotic pressure compared with those before standing.

[4] = Test Example 1: examination of peptide solubility in citrate/phosphate buffers; conditions: for result (whether peptide drug substance was dissolved): room temperature 24 hours
Procedure: The solubility of a peptide drug substance (purity 95 w/w % or more, PPL) was examined for the peptides Asn-Val-Leu-His-Phe-Phe-Asn-Ala-Pro-Leu (SEQ ID NO: 1), Ala-Ser-Leu-Asp-Ser-Asp-Pro-Trp-Val (SEQ ID NO: 2), Lys-Leu-Lys-His-Tyr-Gly-Pro-Gly-Trp-Val (SEQ ID NO: 3), and Leu-Leu-Gln-Ala-Glu-Ala-Pro-Arg-Leu (SEQ ID NO: 4), respectively. First, 10 mM citrate buffers (Citrate) or phosphate buffers (Phosphate) containing 270 mM trehalose from pH 3.0 to pH 8.0 were prepared and the peptide drug substance was added to each buffer so as to provide a predetermined peptide concentration. The mixture was stirred and allowed to stand at room temperature for 24 hours to evaluate whether the peptide drug substance was dissolved.

[5] = Test Example 2: solubility of SEQ ID NO: 1 in glycine-HCl buffers; conditions: for result (solubility): 270 mM trehalose, 24 hours
Procedure: The solubility of the peptide drug substance of SEQ ID NO: 1 (purity 95 w/w % or more, PPL) was examined as described below. First, 10 to 500 mM glycine-HCl buffers containing 270 mM trehalose from pH 2.5 to 3.5 were prepared, and the peptide drug substance was added to 2 mL of each buffer so that the peptide concentration was 10 to 25 mg/mL.

Ala-Ser-Leu-Asp-Ser-Asp-Pro-Trp-Val (ASLDSDPWV) [SEQ ID NO: 2]
change in peptide amount % vs T = 0 (100%) (HPLC analysis) [1]: SEQ ID NO: 2: 100.4% | % difference vs T = 0 ([2]; T = 24 h, 25° C./60% RH): 0% | Conc. ([2]; T = 24 h, 25° C./60% RH): 10.85 mg/mL | % difference vs T = 0 ([2]; T = 24 h, 40° C./75% RH): −6% | Conc. ([2]; T = 24 h, 40° C./75% RH): 10.24 mg/mL | % difference vs T = 0 ([2]; T = 48 h, 25° C./60% RH): −5% | Conc. ([2]; T = 48 h, 25° C./60% RH): 10.37 mg/mL | % difference vs T = 0 ([2]; T = 48 h, 40° C./75% RH): −20% | Conc. ([2]; T = 48 h, 40° C./75% RH): 8.76 mg/mL | degraded ([2]; stored at 75% humidity for 48 hours): 20% | T0 Conc. [2]: 10.89 mg/mL | HPLC analysis: peptide concentration ([3]; T = 0 hour): SEQ ID NO: 2: 2.7 mg/mL | HPLC analysis: peptide concentration ([3]; T = 6 hours, room temperature): 2.8 mg/mL | HPLC analysis: % vs T0 ([3]; room temperature): 107.0% | result (whether peptide drug substance was dissolved) ([4]; 10 mM Citrate pH 3.0, 270 mM trehalose, final conc. 66.67 mg/mL): dissolved | result (whether peptide drug substance was dissolved) ([4]; 10 mM Citrate pH 3.5, 270 mM trehalose, final conc. 66.67 mg/mL): dissolved | result (whether peptide drug substance was dissolved) ([4]; 10 mM Citrate pH 4.0, 270 mM trehalose, final conc. 100 mg/mL): dissolved | result (whether peptide drug substance was dissolved) ([4]; 10 mM Citrate pH 5.0, 270 mM trehalose, final conc. 100 mg/mL): dissolved | result (whether peptide drug substance was dissolved) ([4]; 10 mM Citrate pH 6.0, 270 mM trehalose, final conc. 100 mg/mL): dissolved | result (whether peptide drug substance was dissolved) ([4]; 10 mM Phosphate pH 7.0, 270 mM trehalose, final conc. 100 mg/mL): dissolved | result (whether peptide drug substance was dissolved) ([4]; 10 mM Phosphate pH 7.5, 270 mM trehalose, final conc. 100 mg/mL): dissolved | result (whether peptide drug substance was dissolved) ([4]; 10 mM Phosphate pH 8.0, 270 mM trehalose, final conc. 100 mg/mL): dissolved

CC(C)C[C@H](NC(=O)[C@@H]1CCCN1C(=O)[C@H](C)NC(=O)[C@H](CC(N)=O)NC(=O)[C@H](Cc1ccccc1)NC(=O)[C@H](Cc1ccccc1)NC(=O)[C@H](Cc1c[nH]cn1)NC(=O)[C@H](CC(C)C)NC(=O)[C@@H](NC(=O)[C@@H](N)CC(N)=O)C(C)C)C(=O)O [SEQ ID NO: 1, Asn-Val-Leu-His-Phe-Phe-Asn-Ala-Pro-Leu] (H-NVLHFFNAPL-OH; N-terminus and C-terminus assumed)
result (solubility) ([5]; glycine-HCl buffer pH 2.5, glycine 10 mM (0.75 mg/mL), final conc. of peptide 20 mg/mL, mass ratio peptide/glycine 26.67): dissolved | result (solubility) ([5]; glycine-HCl buffer pH 3, glycine 10 mM (0.75 mg/mL), final conc. of peptide 20 mg/mL, mass ratio 26.67): dissolved | result (solubility) ([5]; glycine-HCl buffer pH 3.5, glycine 10 mM (0.75 mg/mL), final conc. of peptide 20 mg/mL, mass ratio 26.67): dissolved | result (solubility) ([5]; glycine-HCl buffer pH 3.5, glycine 50 mM (3.75 mg/mL), final conc. of peptide 10 mg/mL, mass ratio 2.67): dissolved | result (solubility) ([5]; glycine-HCl buffer pH 3.5, glycine 50 mM (3.75 mg/mL), final conc. of peptide 25 mg/mL, mass ratio 6.67): white turbid | result (solubility) ([5]; glycine-HCl buffer pH 3.5, glycine 100 mM (7.5 mg/mL), final conc. of peptide 10 mg/mL, mass ratio 1.33): dissolved | result (solubility) ([5]; glycine-HCl buffer pH 3.5, glycine 100 mM (7.5 mg/mL), final conc. of peptide 25 mg/mL, mass ratio 3.33): white turbid | result (solubility) ([5]; glycine-HCl buffer pH 3.5, glycine 200 mM (15 mg/mL), final conc. of peptide 10 mg/mL, mass ratio 0.67): dissolved | result (solubility) ([5]; glycine-HCl buffer pH 3.5, glycine 300 mM (22.5 mg/mL), final conc. of peptide 10 mg/mL, mass ratio 0.44): dissolved | result (solubility) ([5]; glycine-HCl buffer pH 3.5, glycine 500 mM (37.5 mg/mL), final conc. of peptide 25 mg/mL, mass ratio 0.67): white turbid | solubility (summary of Table 2) ([5]; peptide concentration of 25 mg/mL, even when glycine concentration was 500 mM): could not be dissolved | stability / precipitation in the cocktail preparation ([3]; pH 4.9): stable without precipitation | solubility (summary of Table 1) ([4]; any of the conditions (pH 3.0 to 8.0), final concentration of 20 mg/mL): could not be dissolved

KLKHYGPGWV [SEQ ID NO: 3]
change in peptide amount % vs T = 0 (100%) (HPLC analysis) [1]: SEQ ID NO: 3: 104.5% | % difference vs T = 0 ([2]; T = 24 h, 25° C./60% RH): 2% | Conc. ([2]; T = 24 h, 25° C./60% RH): 11.42 mg/mL | % difference vs T = 0 ([2]; T = 24 h, 40° C./75% RH): 4% | Conc. ([2]; T = 24 h, 40° C./75% RH): 11.70 mg/mL | % difference vs T = 0 ([2]; T = 48 h, 25° C./60% RH): 4% | Conc. ([2]; T = 48 h, 25° C./60% RH): 11.63 mg/mL | % difference vs T = 0 ([2]; T = 48 h, 40° C./75% RH): 4% | Conc. ([2]; T = 48 h, 40° C./75% RH): 11.74 mg/mL | T0 Conc. [2]: 11.23 mg/mL | HPLC analysis: peptide concentration ([3]; T = 0 hour): SEQ ID NO: 3: 2.5 mg/mL | HPLC analysis: peptide concentration ([3]; T = 6 hours, room temperature): 2.7 mg/mL | HPLC analysis: % vs T0 ([3]; room temperature): 107.7% | result (whether peptide drug substance was dissolved) ([4]; 10 mM Citrate pH 3.0, 270 mM trehalose, final conc. 200 mg/mL): dissolved | result (whether peptide drug substance was dissolved) ([4]; 10 mM Citrate pH 3.5, 270 mM trehalose, final conc. 200 mg/mL): dissolved | result (whether peptide drug substance was dissolved) ([4]; 10 mM Citrate pH 4.0, 270 mM trehalose, final conc. 200 mg/mL): dissolved | result (whether peptide drug substance was dissolved) ([4]; 10 mM Citrate pH 5.0, 270 mM trehalose, final conc. 200 mg/mL): dissolved | result (whether peptide drug substance was dissolved) ([4]; 10 mM Citrate pH 6.0, 270 mM trehalose, final conc. 200 mg/mL): dissolved | result (whether peptide drug substance was dissolved) ([4]; 10 mM Phosphate pH 7.0, 270 mM trehalose, final conc. 200 mg/mL): dissolved | result (whether peptide drug substance was dissolved) ([4]; 10 mM Phosphate pH 7.5, 270 mM trehalose, final conc. 200 mg/mL): dissolved | result (whether peptide drug substance was dissolved) ([4]; 10 mM Phosphate pH 8.0, 270 mM trehalose, final conc. 200 mg/mL): dissolved
